Results as given in the supplement of paper PMC7125110.
± gives the standard error. For some assays here: Fewer inactive variants are shown than the library holds.

B1: glmS ribozyme (parent)
chain: AUAAAAGCGCCAGAACUACAGAAAUGUAGUUGACGAGGAGGAGGUUUAUCGAAUUUUCGGCGGAUGCCUCCAAA

Assays:
Conditions in all cases: with glucosamine-6-phosphate
glucosamine-6-phosphate [1] = variants of: B1; assay: kcat; higher = faster cleavage; RNA array
In short: (§1)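 Sequenced MiSeq chips were the platform: E. coli RNA polymerase transcribed barcoded ribozyme variants on them in situ, and a hybridised Cy3 probe tracked these at 37 °C. After glucosamine-6-phosphate (40 μM to 10 mM) in HEPES/KCl/Mg(OAc)2 buffer was flowed in, tiles were imaged over ~14 h. Signals normalised to baseline and to non-cleaving reference variants were reduced to per-tile medians and fit to one- or two-exponential decays to obtain kobs. kcat and KM were derived through weighted Michaelis–Menten fits across concentrations.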

glucosamine-6-phosphate [2] = variants of: B1; assay: self-cleavage kobs at 40 uM GlcN6P; higher = faster cleavage; RNA array
In short: as §1

glucosamine-6-phosphate [3] = variants of: B1; assay: self-cleavage kobs at 160 uM GlcN6P; higher = faster cleavage; RNA array
In short: as §1

glucosamine-6-phosphate [4] = variants of: B1; assay: self-cleavage kobs at 640 uM GlcN6P; higher = faster cleavage; RNA array
In short: as §1

glucosamine-6-phosphate [5] = variants of: B1; assay: self-cleavage kobs at 2500 uM GlcN6P; higher = faster cleavage; RNA array
In short: as §1

glucosamine-6-phosphate [6] = variants of: B1; assay: self-cleavage kobs at 10000 uM GlcN6P; higher = faster cleavage; RNA array
In short: as §1

glucosamine-6-phosphate [7] = variants of: B1; assay: KM; higher = weaker cofactor use; RNA array
In short: as §1

Row | Variant | kcat (glucosamine-6-phosphate [1]) [s⁻¹] | self-cleavage kobs at 40 uM GlcN6P (glucosamine-6-phosphate [2]) [s⁻¹] | self-cleavage kobs at 160 uM GlcN6P (glucosamine-6-phosphate [3]) [s⁻¹] | self-cleavage kobs at 640 uM GlcN6P (glucosamine-6-phosphate [4]) [s⁻¹] | self-cleavage kobs at 2500 uM GlcN6P (glucosamine-6-phosphate [5]) [s⁻¹] | self-cleavage kobs at 10000 uM GlcN6P (glucosamine-6-phosphate [6]) [s⁻¹] | KM (glucosamine-6-phosphate [7]) [µM]
1 | AUAAAAGCGCCAGAACUACAGAAAUGUAGUUGACGAGGAGGAGGUUUAUCGAAUUUUCGGCGGCUGCCGCCAAA [A64C U69G] | 1.56e-05 ± 5e-06 | < 1e-05 | – | – | – | – | –
2 | AUAAAAGCGCCAGAACUACAGAAAUGUAGUUGACGAGGAGGAGGUUUAUCGAAUUUUCGGCGGAAGCUUCCAAA [U65A C68U] | 0.000403 ± 0.00012 | 3.81e-05 ± 8.7e-06 | 0.000111 ± 1.8e-05 | 0.000186 ± 2.8e-05 | 0.000287 ± 4.2e-05 | 0.000655 ± 8.7e-05 | –
3 | AUAAAAGCGCCAGAACUACAGAAAUGUAGUUGACGAGGAGGAGGUUUAUCGAAUUUUCGGCGGAAGCCUCUAAA [U65A C71U] | 0.00196 ± 0.00076 | 0.000139 ± 2.2e-05 | 0.000277 ± 4.1e-05 | 0.00117 ± 0.00012 | 0.0011 ± 0.0002 | 0.00301 ± 0.00053 | –
4 | AUAAAAGCGCCAGAACUACAGAAAUGUAGUUGACGAGGAGGAGGUUUAUCGAAUUUUCGGCGGGUGCCUCAAAA [A64G C71A] | 0.000799 ± 8.2e-05 | – | 7.29e-05 ± 1.4e-05 | 0.000265 ± 3.8e-05 | 0.00059 ± 7.4e-05 | 0.000652 ± 7.6e-05 | 1410 ± 280
5 | AUAAAAGCGCCAGAACUACAGAAAUGUAGUUGACGAGGAGGAGGUUUAUCGAAUUUUCGGCGGGUGGCUCCAAA [A64G C67G] | 0.000471 ± 1.9e-05 | – | – | 0.000111 ± 1.5e-05 | 0.000275 ± 6.1e-05 | 0.000386 ± 3.6e-05 | 2090 ± 180
6 | AUAAAAGCGCCAGAACUACAGAAAUGUAGUUGACGAGGAGGAGGUUUAUCGAAUUUUCGGCGGUUGCCUUCAAA [A64U C70U] | 0.00015 ± 1.9e-05 | – | – | 5.13e-05 ± 5.8e-06 | 7.86e-05 ± 8.2e-06 | 0.000139 ± 9.8e-06 | 1510 ± 510
7 | AUAAAAGCGCCAGAACUACAGAAAUGUAGUUGACGAGGAGGAGGUUUAUCGAAUUUUCGGCGGUUAUCUCCAAA [A64U G66A C67U] | 1.79e-05 ± 6.9e-06 | < 1e-05 | – | – | – | – | –
8 | AUAAAAGCGCCAGAACUACAGAAAUGUAGUUGACGAGGAGGAGGUUUAUCGAAUUUUCGGCGGACGCAUCCAAA [U65C C68A] | < 1e-05 | < 1e-05 | – | – | – | – | –
9 | AUAAAAGCGCCAGAACUACAGAAAUGUAGUUGACGAGGAGGAGGUUUAUCGAAUUUUCGGCGGAAGCCACCAAA [U65A U69A] | 7.76e-05 ± 5.6e-06 | – | 4.06e-05 ± 1.5e-05 | 6.97e-05 ± 1.3e-05 | 7.08e-05 ± 1.2e-05 | – | 134 ± 50
10 | AUAAAAGCGCCAGAACUACAGAAAUGUAGUUGACGAGGAGGAGGUUUAUCGAAUUUUCGGCGGGUGCCGCCAAA [A64G U69G] | 4.12e-05 ± 5.6e-06 | – | – | 4.4e-05 ± 1.2e-05 | 4.93e-05 ± 1.2e-05 | 3.35e-05 ± 8.6e-06 | –
11 | AUAAAAGCGCCAGAACUACAGAAAUGUAGUUGACGAGGAGGAGGUUUAUCGAAUUUUCGGCGGCUGCCUCUAAA [A64C C71U] | 0.00012 ± 8.4e-06 | – | – | – | 6.58e-05 ± 1.3e-05 | 9.59e-05 ± 1.1e-05 | 2400 ± 500
12 | AUAAAAGCGCCAGAACUACAGAAAUGUAGUUGACGAGGAGGAGGUUUAUCGAAUUUUCGGCGGACGACUCCAAA [U65C C67A] | 0.000111 ± 9.5e-06 | – | – | 6e-05 ± 1.4e-05 | 7.82e-05 ± 2.1e-05 | 0.000106 ± 1.6e-05 | 672 ± 220
13 | AUAAAAGCGCCAGAACUACAGAAAUGUAGUUGACGAGGAGGAGGUUUAUCGAAUUUUCGGCGGAAGUCUCCAAA [U65A C67U] | 0.00212 ± 0.00035 | 7.1e-05 ± 8.1e-06 | 0.00022 ± 2.8e-05 | 0.000793 ± 8.5e-05 | 0.00117 ± 0.00013 | 0.00225 ± 0.00023 | 1260 ± 320
14 | AUAAAAGCGCCAGAACUACAGAAAUGUAGUUGACGAGGAGGAGGUUUAUCGAAUUUUCGGCGGAAGGCUCCAAA [U65A C67G] | 0.000463 ± 7.8e-05 | 2.9e-05 ± 8.7e-06 | 6.44e-05 ± 9.1e-06 | 0.000173 ± 2.2e-05 | 0.000422 ± 6.2e-05 | 0.000386 ± 6.4e-05 | 958 ± 270
15 | AUAAAAGCGCCAGAACUACAGAAAUGUAGUUGACGAGGAGGAGGUUUAUCGAAUUUUCGGCGGUUGCCUCGAAA [A64U C71G] | 1.96e-05 ± 1.5e-06 | – | – | – | – | – | –
16 | AUAAAAGCGCCAGAACUACAGAAAUGUAGUUGACGAGGAGGAGGUUUAUCGAAUUUUCGGCGGGAGCCUCCAAA [A64G U65A] | 0.00547 ± 0.00084 | 0.000129 ± 2.2e-05 | 0.000381 ± 7.6e-05 | 0.00133 ± 0.00024 | 0.00387 ± 0.00065 | 0.00429 ± 0.00072 | 1850 ± 410
